What was measured:
Test in all cases: IP/MS, LZTR1 R810W-FLAG, U87
KIAA1217 = KIAA1217 (human, UniProt Q5T5P2 1-1943, limits assumed)
In short: (§1)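 Extracted peptides in 3% acetonitrile/0.1% formic acid ran on a 50 cm C18 column into an Orbitrap Fusion, with MaxQuant identification and spectral counting.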

PARP14 = PARP14 (human, UniProt Q460N5 1-1801, limits assumed)
In short: as §1

SEC24D = target: T1, SEC24D (human, UniProt O94855 1-1032, limits assumed)
T1 sequence (looked up): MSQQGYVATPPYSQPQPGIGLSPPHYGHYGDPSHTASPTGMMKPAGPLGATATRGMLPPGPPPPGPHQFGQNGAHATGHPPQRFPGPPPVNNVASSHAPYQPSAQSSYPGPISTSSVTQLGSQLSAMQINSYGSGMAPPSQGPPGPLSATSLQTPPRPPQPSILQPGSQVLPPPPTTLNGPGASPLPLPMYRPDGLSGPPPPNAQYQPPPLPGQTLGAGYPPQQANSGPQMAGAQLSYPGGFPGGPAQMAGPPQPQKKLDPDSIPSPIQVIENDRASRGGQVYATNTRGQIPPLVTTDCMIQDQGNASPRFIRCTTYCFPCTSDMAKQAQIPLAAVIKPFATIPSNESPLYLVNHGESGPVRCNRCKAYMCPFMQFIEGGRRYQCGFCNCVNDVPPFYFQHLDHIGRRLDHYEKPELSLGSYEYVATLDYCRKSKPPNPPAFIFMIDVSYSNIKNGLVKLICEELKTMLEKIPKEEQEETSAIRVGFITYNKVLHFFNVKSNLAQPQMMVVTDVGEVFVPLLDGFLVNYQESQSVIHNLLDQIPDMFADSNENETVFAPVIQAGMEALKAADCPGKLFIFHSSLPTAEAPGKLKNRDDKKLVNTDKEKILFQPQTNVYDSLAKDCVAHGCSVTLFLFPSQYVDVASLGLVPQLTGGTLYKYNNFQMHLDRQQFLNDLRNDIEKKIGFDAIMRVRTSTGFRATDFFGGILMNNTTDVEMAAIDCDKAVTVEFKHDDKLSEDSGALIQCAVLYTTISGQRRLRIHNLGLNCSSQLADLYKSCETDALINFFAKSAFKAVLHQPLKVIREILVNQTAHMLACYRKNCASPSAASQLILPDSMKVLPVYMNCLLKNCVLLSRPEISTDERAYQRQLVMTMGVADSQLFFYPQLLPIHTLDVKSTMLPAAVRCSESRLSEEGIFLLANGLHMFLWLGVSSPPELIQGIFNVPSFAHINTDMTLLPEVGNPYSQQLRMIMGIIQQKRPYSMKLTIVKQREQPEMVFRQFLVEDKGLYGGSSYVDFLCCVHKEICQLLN
In short: as §1

EMC1 = target: T2, EMC1 (human, UniProt Q8N766 23-993, limits assumed)
T2 sequence (looked up): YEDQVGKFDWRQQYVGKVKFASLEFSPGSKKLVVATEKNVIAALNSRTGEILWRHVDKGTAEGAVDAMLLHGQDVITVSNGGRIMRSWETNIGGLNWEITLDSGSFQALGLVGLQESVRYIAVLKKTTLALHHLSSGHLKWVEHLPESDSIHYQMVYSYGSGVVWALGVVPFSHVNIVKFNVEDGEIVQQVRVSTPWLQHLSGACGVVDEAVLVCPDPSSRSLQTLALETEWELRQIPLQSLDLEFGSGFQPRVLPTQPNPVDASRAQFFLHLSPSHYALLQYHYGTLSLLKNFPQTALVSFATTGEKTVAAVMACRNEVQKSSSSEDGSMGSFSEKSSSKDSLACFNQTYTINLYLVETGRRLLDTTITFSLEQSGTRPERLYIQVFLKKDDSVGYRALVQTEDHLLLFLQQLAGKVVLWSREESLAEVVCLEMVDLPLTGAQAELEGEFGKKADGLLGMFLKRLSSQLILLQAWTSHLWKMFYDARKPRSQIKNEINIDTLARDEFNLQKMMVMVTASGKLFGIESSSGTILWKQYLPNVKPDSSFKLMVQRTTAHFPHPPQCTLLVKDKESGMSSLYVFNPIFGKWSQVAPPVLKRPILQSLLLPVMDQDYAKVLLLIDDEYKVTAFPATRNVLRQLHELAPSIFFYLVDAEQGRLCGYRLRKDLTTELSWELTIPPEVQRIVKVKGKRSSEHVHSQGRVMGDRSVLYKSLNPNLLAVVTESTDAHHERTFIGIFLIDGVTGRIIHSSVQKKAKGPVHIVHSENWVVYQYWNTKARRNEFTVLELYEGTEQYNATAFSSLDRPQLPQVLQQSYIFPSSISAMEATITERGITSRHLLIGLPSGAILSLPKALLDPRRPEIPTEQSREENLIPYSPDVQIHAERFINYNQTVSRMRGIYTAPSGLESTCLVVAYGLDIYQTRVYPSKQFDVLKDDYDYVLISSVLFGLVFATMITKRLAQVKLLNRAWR
In short: as §1

THADA = THADA (human, UniProt Q6YHU6 1-1953, limits assumed)
In short: as §1

Measured: binding result

Chain of KIAA1217 (Q5T5P2 whole entry, the tested form may be a part): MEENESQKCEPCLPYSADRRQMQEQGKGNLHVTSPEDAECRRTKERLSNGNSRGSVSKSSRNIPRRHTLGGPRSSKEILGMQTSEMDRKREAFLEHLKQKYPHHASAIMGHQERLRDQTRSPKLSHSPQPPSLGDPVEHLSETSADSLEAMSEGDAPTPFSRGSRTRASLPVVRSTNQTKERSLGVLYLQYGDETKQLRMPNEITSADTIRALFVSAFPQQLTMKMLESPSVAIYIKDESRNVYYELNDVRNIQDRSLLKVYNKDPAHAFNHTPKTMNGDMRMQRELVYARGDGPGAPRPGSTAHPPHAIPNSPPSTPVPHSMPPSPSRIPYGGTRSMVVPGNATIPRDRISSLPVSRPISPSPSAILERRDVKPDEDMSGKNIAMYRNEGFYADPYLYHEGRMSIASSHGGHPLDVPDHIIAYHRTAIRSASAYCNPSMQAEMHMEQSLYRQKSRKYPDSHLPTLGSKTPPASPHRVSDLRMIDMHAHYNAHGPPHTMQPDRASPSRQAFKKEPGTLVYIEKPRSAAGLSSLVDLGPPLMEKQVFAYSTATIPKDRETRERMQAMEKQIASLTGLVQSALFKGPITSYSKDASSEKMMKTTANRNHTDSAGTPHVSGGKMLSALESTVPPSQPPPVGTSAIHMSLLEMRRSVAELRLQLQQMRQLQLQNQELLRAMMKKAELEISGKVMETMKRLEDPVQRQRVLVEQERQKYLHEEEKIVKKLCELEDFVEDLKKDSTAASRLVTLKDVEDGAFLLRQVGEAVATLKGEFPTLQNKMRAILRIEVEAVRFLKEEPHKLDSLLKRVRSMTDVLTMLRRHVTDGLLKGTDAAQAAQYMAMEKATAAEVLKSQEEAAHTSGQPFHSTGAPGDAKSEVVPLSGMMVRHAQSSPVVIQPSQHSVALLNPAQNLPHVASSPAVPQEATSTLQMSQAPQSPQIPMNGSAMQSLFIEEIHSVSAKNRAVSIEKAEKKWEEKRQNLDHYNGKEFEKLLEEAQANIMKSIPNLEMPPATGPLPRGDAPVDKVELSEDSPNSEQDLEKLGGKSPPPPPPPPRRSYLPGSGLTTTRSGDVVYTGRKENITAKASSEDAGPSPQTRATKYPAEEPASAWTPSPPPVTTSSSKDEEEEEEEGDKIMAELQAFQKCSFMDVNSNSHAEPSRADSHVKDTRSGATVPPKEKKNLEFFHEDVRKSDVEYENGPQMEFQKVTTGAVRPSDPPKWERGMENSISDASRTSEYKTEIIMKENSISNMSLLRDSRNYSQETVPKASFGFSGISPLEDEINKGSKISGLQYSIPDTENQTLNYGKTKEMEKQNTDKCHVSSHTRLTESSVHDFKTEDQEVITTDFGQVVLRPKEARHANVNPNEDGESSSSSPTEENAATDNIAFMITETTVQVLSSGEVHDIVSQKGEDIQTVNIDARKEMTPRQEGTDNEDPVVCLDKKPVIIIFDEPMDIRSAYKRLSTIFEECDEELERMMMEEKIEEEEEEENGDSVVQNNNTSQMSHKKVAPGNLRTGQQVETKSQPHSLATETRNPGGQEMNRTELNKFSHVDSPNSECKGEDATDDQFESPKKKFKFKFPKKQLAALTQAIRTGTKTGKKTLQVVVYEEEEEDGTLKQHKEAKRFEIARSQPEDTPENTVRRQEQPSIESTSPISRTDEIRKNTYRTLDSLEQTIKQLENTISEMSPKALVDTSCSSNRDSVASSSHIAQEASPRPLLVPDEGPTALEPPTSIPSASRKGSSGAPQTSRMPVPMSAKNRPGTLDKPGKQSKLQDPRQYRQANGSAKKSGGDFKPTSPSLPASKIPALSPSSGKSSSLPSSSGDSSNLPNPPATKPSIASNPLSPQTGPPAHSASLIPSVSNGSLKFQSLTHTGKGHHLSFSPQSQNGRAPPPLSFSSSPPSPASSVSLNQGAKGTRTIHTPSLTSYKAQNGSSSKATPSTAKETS
Chain of THADA (Q6YHU6 whole entry): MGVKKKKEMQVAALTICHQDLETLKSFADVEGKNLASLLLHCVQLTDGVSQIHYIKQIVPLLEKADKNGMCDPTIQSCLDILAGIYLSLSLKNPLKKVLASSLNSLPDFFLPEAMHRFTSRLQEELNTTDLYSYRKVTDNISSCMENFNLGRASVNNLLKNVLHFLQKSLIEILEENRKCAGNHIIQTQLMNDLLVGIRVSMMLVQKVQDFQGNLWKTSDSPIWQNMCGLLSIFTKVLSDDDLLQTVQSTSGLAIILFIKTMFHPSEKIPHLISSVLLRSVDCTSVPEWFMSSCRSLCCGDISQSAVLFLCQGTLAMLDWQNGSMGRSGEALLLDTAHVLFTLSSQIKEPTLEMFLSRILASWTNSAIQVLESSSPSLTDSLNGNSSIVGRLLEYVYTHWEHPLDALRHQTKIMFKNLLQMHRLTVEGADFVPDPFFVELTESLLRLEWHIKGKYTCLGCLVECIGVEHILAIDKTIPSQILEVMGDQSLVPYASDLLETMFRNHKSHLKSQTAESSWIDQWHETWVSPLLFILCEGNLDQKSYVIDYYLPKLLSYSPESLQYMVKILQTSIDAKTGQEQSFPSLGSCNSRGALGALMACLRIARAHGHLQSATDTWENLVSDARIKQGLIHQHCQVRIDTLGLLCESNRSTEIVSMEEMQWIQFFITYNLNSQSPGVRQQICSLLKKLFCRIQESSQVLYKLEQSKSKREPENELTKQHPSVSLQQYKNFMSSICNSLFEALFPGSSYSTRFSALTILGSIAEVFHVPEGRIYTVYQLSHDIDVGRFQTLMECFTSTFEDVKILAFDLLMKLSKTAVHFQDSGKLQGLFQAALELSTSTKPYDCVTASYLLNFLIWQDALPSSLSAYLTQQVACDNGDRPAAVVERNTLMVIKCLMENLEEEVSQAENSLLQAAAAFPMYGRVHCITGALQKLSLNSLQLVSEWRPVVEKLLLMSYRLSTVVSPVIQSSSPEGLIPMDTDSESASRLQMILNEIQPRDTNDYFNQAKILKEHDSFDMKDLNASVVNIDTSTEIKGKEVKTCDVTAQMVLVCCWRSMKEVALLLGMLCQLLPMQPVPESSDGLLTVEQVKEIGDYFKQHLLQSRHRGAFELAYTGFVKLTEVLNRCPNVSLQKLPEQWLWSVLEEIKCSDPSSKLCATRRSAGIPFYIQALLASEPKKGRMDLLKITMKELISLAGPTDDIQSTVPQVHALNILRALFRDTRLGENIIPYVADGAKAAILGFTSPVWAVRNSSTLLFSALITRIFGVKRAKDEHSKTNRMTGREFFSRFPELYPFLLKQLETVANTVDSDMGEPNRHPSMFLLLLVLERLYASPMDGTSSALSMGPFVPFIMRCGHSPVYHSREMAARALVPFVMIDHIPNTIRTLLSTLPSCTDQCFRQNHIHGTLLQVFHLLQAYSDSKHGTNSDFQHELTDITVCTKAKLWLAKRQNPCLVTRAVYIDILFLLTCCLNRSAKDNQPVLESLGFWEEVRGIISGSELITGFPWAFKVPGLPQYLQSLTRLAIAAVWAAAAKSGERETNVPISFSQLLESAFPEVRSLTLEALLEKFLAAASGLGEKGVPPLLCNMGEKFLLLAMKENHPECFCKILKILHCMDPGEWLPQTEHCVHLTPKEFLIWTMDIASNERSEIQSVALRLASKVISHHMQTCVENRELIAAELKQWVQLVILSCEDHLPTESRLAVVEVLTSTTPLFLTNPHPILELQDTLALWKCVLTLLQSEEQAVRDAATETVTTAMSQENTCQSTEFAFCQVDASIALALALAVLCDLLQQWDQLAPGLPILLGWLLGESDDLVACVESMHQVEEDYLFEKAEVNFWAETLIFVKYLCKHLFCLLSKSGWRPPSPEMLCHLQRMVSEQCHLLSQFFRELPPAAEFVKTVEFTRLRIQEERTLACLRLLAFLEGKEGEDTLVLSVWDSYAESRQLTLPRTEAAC

B1: LZTR1 R810W-FLAG (other, human, UniProt Q8N653 1-840, looked up)
chain: MAGPGSTGGQIGAAALAGGARSKVAPSVDFDHSCSDSVEYLTLNFGPFETVHRWRRLPPCDEFVGARRSKHTVVAYKDAIYVFGGDNGKTMLNDLLRFDVKDCSWCRAFTTGTPPAPRYHHSAVVYGSSMFVFGGYTGDIYSNSNLKNKNDLFEYKFATGQWTEWKIEGRLPVARSAHGATVYSDKLWIFAGYDGNARLNDMWTIGLQDRELTCWEEVAQSGEIPPSCCNFPVAVCRDKMFVFSGQSGAKITNNLFQFEFKDKTWTRIPTEHLLRGSPPPPQRRYGHTMVAFDRHLYVFGGAADNTLPNELHCYDVDFQTWEVVQPSSDSEVGGAEVPERACASEEVPTLTYEERVGFKKSRDVFGLDFGTTSAKQPTQPASELPSGRLFHAAAVISDAMYIFGGTVDNNIRSGEMYRFQFSCYPKCTLHEDYGRLWESRQFCDVEFVLGEKEECVQGHVAIVTARSRWLRRKITQARERLAQKLEQEAAPVPREAPGVAAGGARPPLLHVAIREAEARPFEVLMQFLYTDKIKYPRKGHVEDVLLIMDVYKLALSFQLCRLEQLCRQYIEASVDLQNVLVVCESAARLQLSQLKEHCLNFVVKESHFNQVIMMKEFERLSSPLIVEIVRRKQQPPPRTPLDQPVDIGTSLIQDMKAYLEGAGAEFCDITLLLDGHPRPAHKAILAARSSYFEAMFRSFMPEDGQVNISIGEMVPSRQAFESMLRYIYYGEVNMPPEDSLYLFAAPYYYGFYNNRLQAYCKQNLEMNVTVQNVLQILEAADKTQALDMKRHCLHIIVHQFTKVSKLPTLWSLSQQLLLDIIDSLASHISDKQCAELGADI
notes: Stably expressed in U87 cells by lentivirus; also called LZTR1-FLAG-R810W; LZTR1 RW; not shown: FLAG tag
binds: all assays above

Reference: US20250262210A1 (TRUSTEES OF COLUMBIA UNIVERSITY IN THE CITY OF NEW YORK, published 2025)
